Reference: paper PMC10786891, “Massively parallel profiling of RNA-targeting CRISPR-Cas13d”

Target: T1, EsCas13d, nuclease-dead (Eubacterium siraeum, UniProt B0MS50, R295A;H300A;R849A;H854A)
T1 sequence: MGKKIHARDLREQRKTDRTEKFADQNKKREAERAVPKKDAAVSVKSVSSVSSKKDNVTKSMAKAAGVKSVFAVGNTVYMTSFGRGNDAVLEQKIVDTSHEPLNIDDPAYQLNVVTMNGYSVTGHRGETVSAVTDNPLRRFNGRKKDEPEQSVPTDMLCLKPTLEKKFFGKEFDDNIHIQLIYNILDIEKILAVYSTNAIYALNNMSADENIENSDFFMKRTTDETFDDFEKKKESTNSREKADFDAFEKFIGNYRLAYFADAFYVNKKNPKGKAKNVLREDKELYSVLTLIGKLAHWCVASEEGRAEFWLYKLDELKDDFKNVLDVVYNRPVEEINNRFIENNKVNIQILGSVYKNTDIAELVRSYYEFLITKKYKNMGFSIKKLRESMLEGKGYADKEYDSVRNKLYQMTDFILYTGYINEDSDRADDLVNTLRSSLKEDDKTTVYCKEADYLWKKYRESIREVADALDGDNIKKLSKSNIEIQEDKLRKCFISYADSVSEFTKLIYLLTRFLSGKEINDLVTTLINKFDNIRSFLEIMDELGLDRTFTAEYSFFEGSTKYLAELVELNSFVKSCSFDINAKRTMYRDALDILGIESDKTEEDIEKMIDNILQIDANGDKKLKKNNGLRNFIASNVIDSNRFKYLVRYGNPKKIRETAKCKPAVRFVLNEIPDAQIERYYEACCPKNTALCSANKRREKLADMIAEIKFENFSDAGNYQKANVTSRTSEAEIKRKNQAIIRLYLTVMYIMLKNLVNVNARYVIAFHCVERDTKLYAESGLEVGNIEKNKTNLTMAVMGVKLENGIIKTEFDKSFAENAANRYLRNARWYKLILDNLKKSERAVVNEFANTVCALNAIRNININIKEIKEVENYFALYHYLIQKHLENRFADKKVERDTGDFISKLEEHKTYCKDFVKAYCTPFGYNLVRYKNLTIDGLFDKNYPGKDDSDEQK
Assay: crRNA (strand 1, pre-loaded); Mg2+; 40 mM Tris-HCl pH 7.5, 150 mM NaCl, 6 mM MgCl2, 1 mM DTT, 0.1% Tween-20, 0.2 mg/ml BSA; 25 C; 10 min per concentration, then washed
Settings: tags: His6-TwinStrep-SUMO cleaved; N-terminal SNAP kept (SNAP-Surface 488); label: 3' end held by stalled T7 RNA polymerase

Binder	Kd
target 2 MT 5'PFS GAU 3'PFS CUA (mixed) RNA 1: CACCCGUGCAAAAUUGCAGGGGUCUAAAACCUUCUCCAAAUUGUUUCAUCCU RNA 2: GGGAAUGGAUCCACAUCUACGAAUUCGAUAGGAUGAAACAAUUUGGAGAAGCUAAGAUCGGAAGAGCACACGU	11.9 ± 1.7 nM
target 2 MT 5'PFS GGA 3'PFS AGU (mixed) RNA 1: CACCCGUGCAAAAUUGCAGGGGUCUAAAACCUUCUCCAAAUUGUUUCAUCCU RNA 2: GGGAAUGGAUCCACAUCUACGAAUUCGGAAGGAUGAAACAAUUUGGAGAAGAGUAGAUCGGAAGAGCACACGU	14.1 ± 1.4 nM
target 2 MT 5'PFS AUG 3'PFS AUU (mixed) RNA 1: CACCCGUGCAAAAUUGCAGGGGUCUAAAACCUUCUCCAAAUUGUUUCAUCCU RNA 2: GGGAAUGGAUCCACAUCUACGAAUUCAUGAGGAUGAAACAAUUUGGAGAAGAUUAGAUCGGAAGAGCACACGU	9.9 ± 1.2 nM
target 2 MT 5'PFS UUG 3'PFS AAA (mixed) RNA 1: CACCCGUGCAAAAUUGCAGGGGUCUAAAACCUUCUCCAAAUUGUUUCAUCCU RNA 2: GGGAAUGGAUCCACAUCUACGAAUUCUUGAGGAUGAAACAAUUUGGAGAAGAAAAGAUCGGAAGAGCACACGU	6.7 ± 0.6 nM
target 2 MT 5'PFS UUU 3'PFS UCC (mixed) RNA 1: CACCCGUGCAAAAUUGCAGGGGUCUAAAACCUUCUCCAAAUUGUUUCAUCCU RNA 2: GGGAAUGGAUCCACAUCUACGAAUUCUUUAGGAUGAAACAAUUUGGAGAAGUCCAGAUCGGAAGAGCACACGU	20.7 ± 1.9 nM
target 2 MT 5'PFS GGA 3'PFS AGC (mixed) RNA 1: CACCCGUGCAAAAUUGCAGGGGUCUAAAACCUUCUCCAAAUUGUUUCAUCCU RNA 2: GGGAAUGGAUCCACAUCUACGAAUUCGGAAGGAUGAAACAAUUUGGAGAAGAGCAGAUCGGAAGAGCACACGU	7.3 ± 0.7 nM
target 2 MT 5'PFS GGU 3'PFS AGA (mixed) RNA 1: CACCCGUGCAAAAUUGCAGGGGUCUAAAACCUUCUCCAAAUUGUUUCAUCCU RNA 2: GGGAAUGGAUCCACAUCUACGAAUUCGGUAGGAUGAAACAAUUUGGAGAAGAGAAGAUCGGAAGAGCACACGU	10.6 ± 1.5 nM
target 2 MT 5'PFS GAU 3'PFS UUU (mixed) RNA 1: CACCCGUGCAAAAUUGCAGGGGUCUAAAACCUUCUCCAAAUUGUUUCAUCCU RNA 2: GGGAAUGGAUCCACAUCUACGAAUUCGAUAGGAUGAAACAAUUUGGAGAAGUUUAGAUCGGAAGAGCACACGU	47 ± 13 nM
target 2 MT 5'PFS CUC 3'PFS CGA (mixed) RNA 1: CACCCGUGCAAAAUUGCAGGGGUCUAAAACCUUCUCCAAAUUGUUUCAUCCU RNA 2: GGGAAUGGAUCCACAUCUACGAAUUCCUCAGGAUGAAACAAUUUGGAGAAGCGAAGAUCGGAAGAGCACACGU	1.62 ± 0.31 nM
target 2 MT 5'PFS ACA 3'PFS CAU (mixed) RNA 1: CACCCGUGCAAAAUUGCAGGGGUCUAAAACCUUCUCCAAAUUGUUUCAUCCU RNA 2: GGGAAUGGAUCCACAUCUACGAAUUCACAAGGAUGAAACAAUUUGGAGAAGCAUAGAUCGGAAGAGCACACGU	4.4 ± 1 nM
target 2 MT 5'PFS GGU 3'PFS AGG (mixed) RNA 1: CACCCGUGCAAAAUUGCAGGGGUCUAAAACCUUCUCCAAAUUGUUUCAUCCU RNA 2: GGGAAUGGAUCCACAUCUACGAAUUCGGUAGGAUGAAACAAUUUGGAGAAGAGGAGAUCGGAAGAGCACACGU	14.4 ± 1.3 nM
target 2 MT 5'PFS UUG 3'PFS AAG (mixed) RNA 1: CACCCGUGCAAAAUUGCAGGGGUCUAAAACCUUCUCCAAAUUGUUUCAUCCU RNA 2: GGGAAUGGAUCCACAUCUACGAAUUCUUGAGGAUGAAACAAUUUGGAGAAGAAGAGAUCGGAAGAGCACACGU	9.6 ± 0.7 nM
target 2 MT 5'PFS GGA 3'PFS AGG (mixed) RNA 1: CACCCGUGCAAAAUUGCAGGGGUCUAAAACCUUCUCCAAAUUGUUUCAUCCU RNA 2: GGGAAUGGAUCCACAUCUACGAAUUCGGAAGGAUGAAACAAUUUGGAGAAGAGGAGAUCGGAAGAGCACACGU	8.4 ± 0.6 nM
target 2 MT 5'PFS CUC 3'PFS CGC (mixed) RNA 1: CACCCGUGCAAAAUUGCAGGGGUCUAAAACCUUCUCCAAAUUGUUUCAUCCU RNA 2: GGGAAUGGAUCCACAUCUACGAAUUCCUCAGGAUGAAACAAUUUGGAGAAGCGCAGAUCGGAAGAGCACACGU	2.25 ± 0.29 nM
target 2 MT 5'PFS GGU 3'PFS AGC (mixed) RNA 1: CACCCGUGCAAAAUUGCAGGGGUCUAAAACCUUCUCCAAAUUGUUUCAUCCU RNA 2: GGGAAUGGAUCCACAUCUACGAAUUCGGUAGGAUGAAACAAUUUGGAGAAGAGCAGAUCGGAAGAGCACACGU	13.8 ± 1.9 nM
target 2 MT 5'PFS UUG 3'PFS AAU (mixed) RNA 1: CACCCGUGCAAAAUUGCAGGGGUCUAAAACCUUCUCCAAAUUGUUUCAUCCU RNA 2: GGGAAUGGAUCCACAUCUACGAAUUCUUGAGGAUGAAACAAUUUGGAGAAGAAUAGAUCGGAAGAGCACACGU	9.8 ± 1.2 nM
target 2 MT 5'PFS AAA 3'PFS AGG (mixed) RNA 1: CACCCGUGCAAAAUUGCAGGGGUCUAAAACCUUCUCCAAAUUGUUUCAUCCU RNA 2: GGGAAUGGAUCCACAUCUACGAAUUCAAAAGGAUGAAACAAUUUGGAGAAGAGGAGAUCGGAAGAGCACACGU	4.7 ± 0.9 nM
target 2 MT 5'PFS UUG 3'PFS AAC (mixed) RNA 1: CACCCGUGCAAAAUUGCAGGGGUCUAAAACCUUCUCCAAAUUGUUUCAUCCU RNA 2: GGGAAUGGAUCCACAUCUACGAAUUCUUGAGGAUGAAACAAUUUGGAGAAGAACAGAUCGGAAGAGCACACGU	9.8 ± 1.2 nM
target 2 MT 5'PFS GGA 3'PFS AGA (mixed) RNA 1: CACCCGUGCAAAAUUGCAGGGGUCUAAAACCUUCUCCAAAUUGUUUCAUCCU RNA 2: GGGAAUGGAUCCACAUCUACGAAUUCGGAAGGAUGAAACAAUUUGGAGAAGAGAAGAUCGGAAGAGCACACGU	8.7 ± 1.1 nM
target 2 MT 5'PFS UUU 3'PFS UCA (mixed) RNA 1: CACCCGUGCAAAAUUGCAGGGGUCUAAAACCUUCUCCAAAUUGUUUCAUCCU RNA 2: GGGAAUGGAUCCACAUCUACGAAUUCUUUAGGAUGAAACAAUUUGGAGAAGUCAAGAUCGGAAGAGCACACGU	8.7 ± 1 nM
target 2 MT 5'PFS ACA 3'PFS CAG (mixed) RNA 1: CACCCGUGCAAAAUUGCAGGGGUCUAAAACCUUCUCCAAAUUGUUUCAUCCU RNA 2: GGGAAUGGAUCCACAUCUACGAAUUCACAAGGAUGAAACAAUUUGGAGAAGCAGAGAUCGGAAGAGCACACGU	4.8 ± 0.9 nM
target 2 MT 5'PFS GUU 3'PFS UGU (mixed) RNA 1: CACCCGUGCAAAAUUGCAGGGGUCUAAAACCUUCUCCAAAUUGUUUCAUCCU RNA 2: GGGAAUGGAUCCACAUCUACGAAUUCGUUAGGAUGAAACAAUUUGGAGAAGUGUAGAUCGGAAGAGCACACGU	21 ± 2.3 nM
target 1 C6G,U8C (mixed) RNA 1: CACCCGUGCAAAAAUGCAGGGGUCUAAAACUGAGCGGAUAACCUCUCUAUGG RNA 2: GGGAAUGGAUCCACAUCUACGAAUUCGUACCAUAGAGAGGUUACCGGCUCACCGAGAUCGGAAGAGCACACGU	11.9 ± 0.6 nM
target 1 A1C,A14G (mixed) RNA 1: CACCCGUGCAAAAAUGCAGGGGUCUAAAACUGAGCGGAUAACCUCUCUAUGG RNA 2: GGGAAUGGAUCCACAUCUACGAAUUCGUACCAUAGAGGGGUUAUCCGCUCCCCGAGAUCGGAAGAGCACACGU	25 ± 4 nM
